{"source": "paper PMC5812989", "about": "“Evaluation of HER2-specific peptide ligand for its employment as radiolabeled imaging probe” (Scientific Reports, 2018)", "key": {"[1]": {"tested_on": "HER2-expressing BT474 cells", "test": "LigandTracer / InteractionMap kinetics of binding to living HER2-expressing cells", "design": "species or system human", "settings": "1:2 interaction model, room temperature, 4, 12 and 36 nM, read-out: affinity, weaker binding site (low affinity interaction)", "method": "For cell studies, the HER2-expressing breast carcinoma cell line BT474 (from ATCC) was used. The cell line was cultured in RPMI medium (Flow Irvine, UK) supplemented with 10% fetal calf serum (Sigma, USA), 2 mM L-glutamine and PEST (penicillin 100 IU/mL and 100 μg/mL streptomycin), all from Biokrom Kg, Germany.\nCells from the human breast carcinoma cell line BT474 were seeded on a local area of a cell culture dish (NunclonTM, Size 100620, NUNC A/S, Roskilde, Denmark), as described by Björke and Andersson[63]. The binding of ^111In-DTPA-A9 to living cells was monitored in real-time at room temperature using LigandTracer Yellow, using method established by Björke and Andersson[63]. In brief, the cell culture dish was placed on the sloping and rotating cell dish holder in LigandTracer Yellow, followed by a continuous monitoring of the radioactivity level along the rim of the dish. If the labelled peptide binds to the cells, an elevated signal will be recorded when the cells pass by the detector. […] Binding and dissociation curves were analyzed by InteractionMap software as described by Björkelund et al. to calculate affinity of ^111In-DTPA-A9 binding to living HER2-expressing cells.\nAdditionally, specificity of ^111In-DTPA-A9 binding to HER2 expressing cells was evaluated using pre-saturation of receptors by trastuzumab and by using ^111In-labeled scrambled DTPA-A9 (^111In- DTPA-S-A9). […]"}, "[2]": {"test": "In vitro peptide stability in serum (HPLC)", "format": "in vitro ADME", "settings": "during one hour; 0.5 mg/mL, RPMI with 10% FBS, 37 °C", "method": "Figure S4: In vitro Peptide Stability in Serum. A9 modified peptides at concentration of 0.5 mg/mL were dissolved in RPMI containing 10% of FBS (fetal bovine serum) and incubated at 37 °C. Samples (50 μL) were taken regularly (t = 0, 0.5, 1, 2, 3, 6, and 24 h) and mixed with 100 μL of CH3CH2OH (96%), for precipitation of serum proteins. The cloudy reaction sample is cooled (4 °C) for 15 min and then spin at 16,000 rpm for 2 min, to pellet the precipitated serum proteins^1. The chromatographic analysis of samples (30 μL injected for each injection) were performed on an Alliance HT WATERS 2795 system, equipped with a PDA WATERS detector 2996 using a […] C18 Waters xBridge (3 μm, 4.6 x 50 mm) column, with a linear gradient from 5% to 70% of 0.05% TFA in CH3CN (Solvent B) over 20 min at a flow rate of 0.2 mL/min. […] Results are mean of three independent experiments performed in duplicate."}, "[3]": {"design": "species or system BALB/c nu/nu mice", "settings": "mouse, in vivo", "method": "Four BALB/C nu/nu mice were used for the biodistribution studies. At the time of experiment, the average animal weight was 20.5 ± 0.9 g. Animals were injected intravenously (tail vein) with 3 µg (30 kBq) of ^111In-DTPA-A9 in 100 µL PBS. Since DTPA-A9 peptide resulted stable to serum proteolytic degradation in a range of 90 minutes (for details see Supplementary Information Fig. S6), at 1 hour after injection, a mixture of Ketalar-Rompun (20 µL of solution per gram body weight; Ketalar: 10 mg/mL; Rompun: 1 mg/mL) was injected intraperitonealy, and the mice were euthanized by a heart puncture using a syringe, pre-washed with diluted heparin (5000 IE/mL). Blood as well as brain, stomach, pancreas, lung, liver, spleen, kidneys, samples of muscle and bone, gastrointestinal tract (with its content) and remaining carcass were collected in pre-weighed plastic vials. Organs and tissue samples were weighed and measured for radioactivity using an automatic gamma counter. The tissue uptake values were calculated as per cent injected activity per gram of tissue (% ID/g) and per whole sample (% ID/sample). The gastrointestinal tract and the carcass uptakes were calculated only as % ID per whole sample. The radioactivity in the gastrointestinal tract with its content was used as a measure of hepatobiliary excretion."}}, "note": "Where a SMILES comes first, the peptide text is derived from it. Where no end group is shown, it is not given here. The star is where a group is joined. DTPA = O=C(O)CN(CCN(CC(=O)O)CC(=O)O)CCN(CC(=O)O)CC(=O)*", "data": [{"molecule": "^111In-DTPA-SA9: 111In-labeled scrambled conjugate, same amino acids as A9 but in a different order ({DTPA}-WAVQNTDAV-NH2; also: DTPA complexed with 111In)", "values": [{"measurement": "Kd", "setting": "[1]", "value": 103, "unit": "nM"}]}, {"molecule": "QDVNTAVAW-NH2 [A9]", "values": [{"measurement": "stability on incubation in vitro with blood serum", "setting": "[2]", "value": "high stability"}]}, {"molecule": "CC(C)[C@H](NC(=O)[C@H](C)NC(=O)[C@@H](NC(=O)[C@H](CC(N)=O)NC(=O)[C@@H](NC(=O)[C@H](CC(=O)O)NC(=O)[C@H](CCC(N)=O)NC(=O)CN(CCN(CCN(CC(=O)O)CC(=O)O)CC(=O)O)CC(=O)O)C(C)C)[C@@H](C)O)C(=O)N[C@@H](C)C(=O)N[C@@H](Cc1c[nH]c2ccccc12)C(N)=O", "note": "[^111In-DTPA-A9, metal not drawn] ({DTPA}-QDVNTAVAW-NH2)", "values": [{"measurement": "radioactivity in the gastrointestinal tract with content", "setting": "[3]", "value": "approximately 1 % of injected activity"}, {"measurement": "uptake, blood", "setting": "[3]; iv, 1 h", "value": "0.24 ± 0.04", "unit": "% ID/g"}, {"measurement": "uptake, bone", "setting": "[3]; iv, 1 h", "value": "0.16 ± 0.13", "unit": "% ID/g"}, {"measurement": "uptake, brain", "setting": "[3]; iv, 1 h", "value": "0.03 ± 0.03", "unit": "% ID/g"}, {"measurement": "uptake, liver", "setting": "[3]; iv, 1 h", "value": "0.44 ± 0.04", "unit": "% ID/g"}, {"measurement": "uptake, lung", "setting": "[3]; iv, 1 h", "value": "0.5 ± 0.3", "unit": "% ID/g"}, {"measurement": "uptake, muscle", "setting": "[3]; iv, 1 h", "value": "0.01 ± 0.01", "unit": "% ID/g"}, {"measurement": "uptake, pancreas", "setting": "[3]; iv, 1 h", "value": "0.13 ± 0.03", "unit": "% ID/g"}, {"measurement": "uptake, spleen", "setting": "[3]; iv, 1 h", "value": "0.22 ± 0.01", "unit": "% ID/g"}, {"measurement": "uptake, stomach", "setting": "[3]; iv, 1 h", "value": "0.27 ± 0.07", "unit": "% ID/g"}]}]}
